± gives the uncertainty stated by the source.
Test: amyloid nucleation score (Sup35N fusion, yeast selection) (log enrichment); library NNK3; higher = more nucleation; inactive = no reads after selection
Summary of the method: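 Three technical output replicates were used for random libraries. Psi-negative yeast expressing peptides of 20 random codons fused to Sup35N were induced with 100 μM copper sulfate for 24 hours and grown 7 days at 30°C on medium lacking adenine and uracil, and input and output plasmid inserts were Illumina-sequenced, excluding sequences with under 100 input reads. The nucleation score is the DiMSum log enrichment of output over input reads, centred on the mode score of non-aggregating sequences.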

| Substance | amyloid nucleation score |
| --- | --- |
| QQFVTFVIFKYTVSVAMGAG | -0.478 ± 0.88 |
| QQWWLLFSLC | inactive |
| QRDTSGEYGIVWYYVFNRTG | inactive |
| QRITDKMSYADSLLRSST | inactive |
| QRLIRMSFSMAHMTSNFVMV | inactive |
| QRSTKPW | -0.586 ± 1.9 |
| QSASFRNGFKLLLMTS | inactive |
| QSCCF | inactive |
| QSGTLLGLLHQANYLGYAF | inactive |
| QSLLDLMSFLMCV | inactive |
| QSRPKMMFLDSGCFWGFCVR | inactive |
| QSSIVWCVSFIKSRCDFSIC | inactive |
| QSVSVGLCCWAMPVK | inactive |
| QTHSMGDSECYL | inactive |
| QTLNERTWTGYDIHVRHVRR | inactive |
| QTMKWSIVHGQKTGGSWVDM | inactive |
| QTQKLFQYI | inactive |
| QTRVTVYSWVPRDYFSQHED | inactive |
| QTSST | inactive |
| QTSSTNPMVASKPQAQRACK | inactive |
| QTVKVISPYPTMLTLCD | inactive |
| QTVNWSDDL | inactive |
| QTYMTLHETVRLWARMLSC | inactive |

| Substance | amyloid nucleation score |
| --- | --- |
| QVFLSKVCMLFDVVARVVKR | inactive |
| QVGQESDSCLSSIRLCFKYR | 0.163 ± 0.24 |
| QVKLGRTLTSGQGFTQLHSV | -0.852 ± 2.5 |
| QVLLCNAPFRQLYVACFYCF | 0.422 ± 0.38 |
| QVLWTGEMDSMICWA | inactive |
| QWGGSNIVRYRNFIVGLFVR | inactive |
| QWVVEHRFWLVYNGEHRNSY | 0.762 ± 0.15 |
| QYFSWKIRSGNLVYAF | inactive |
| QYICHDNCRCCQRNEKFRRK | inactive |
| QYRRRVYDYVGCTRLWKNLW | -0.682 ± 0.93 |
| RAALPMVFHRFLTFMDAFLV | 1.83 ± 0.075 |
| RAEMMSYTLVQIIGYISIVE | inactive |
| RAFFDC | -0.47 ± 0.66 |
| RARALLAHLKVPSKPVFTAV | inactive |
| RAYSLLVRQIVRCNESG | inactive |
| RAYSSWSLSSCRCNSDWTVG | inactive |
| RAYSYPSDYWW | -0.122 ± 0.43 |
| RCDVRFSWLIPSGLE | 1.56 ± 0.086 |
| RCFIDLCFLDIIISFRYY | inactive |
| RCGILW | inactive |
| RCGTLYRGG | inactive |
| RCGYHFHQVAFFTKDVKVVE | inactive |
| RCLEEP | 0.145 ± 0.34 |

| Substance | amyloid nucleation score |
| --- | --- |
| RCLMDMFHILPKKSGVFSIT | inactive |
| RCNKRTEGVSE | inactive |
| RCNLTCLGMIDVTIS | inactive |
| RCSYLMRLYISSFMY | inactive |
| RCVGEACVNGGCLITITYVG | 1.16 ± 0.11 |
| RDCDDQ | inactive |
| RDDGEALVTSARRVQTSYPA | -0.145 ± 0.93 |
| RDDNAKNVGSPRAAHTRALR | inactive |
| RDEVLNSHFIVGSRMRSNVA | 1.31 ± 0.14 |
| RDFATTNGRDNIELHSQGNY | inactive |
| RDGSQGEFWVLALARLGGTS | 0.311 ± 0.48 |
| RDIMGLDLFQARNTTRSNYK | inactive |
| RDIQYLCKYLRSMMHRGQAH | inactive |
| RDNLLGLTGNTTGDFTPGTV | inactive |
| RDPFITFWYMRIYTTGRGCV | inactive |
| RDRWI | inactive |
| RDVMWVNHVYCMLEFWTWVV | inactive |
| RDYILKT | inactive |
| RDYKAHYLRCLYLWTMSLP | inactive |
| RECSNSVVLFLDVTHRVVRT | inactive |
| REGCHPFELSDPDGDHLVRF | inactive |
| REMKWRLELLVGGKYRYHQL | inactive |
| REVELSNVYYNDVSACLHKK | -0.378 ± 1.4 |

| Substance | amyloid nucleation score |
| --- | --- |
| REVRTGLNLIPRRIVSNHTF | inactive |
| REVYLMRSEPWRLLFDGKYR | inactive |
| RFDDRG | inactive |
| RFIDWQVCD | inactive |
| RFIWIGIWKEGEGLADYSEK | inactive |
| RFKYPPTFKMNSSSFFQSLL | inactive |
| RFLLDRACLWLRGVI | inactive |
| RFLLYPAPWRVFAIPYSEHL | inactive |
| RFLSMSTLKRDS | inactive |
| RFMWSLGSTLRWKAWADVTG | inactive |
| RFRNYGLSGR | -0.38 ± 0.89 |
| RFSMNASYFYYVIMFSDCYS | inactive |
| RFSNAMLMCLVTNVSC | 0.451 ± 0.61 |
| RFWKTTPNGQIRVSSVMRCM | inactive |
| RFYNDW | inactive |
| RFYSARGGKRARIHVRVKWD | -0.446 ± 0.55 |
| RGATC | inactive |
| RGCKKLYRIKANVMYVSTVN | inactive |
| RGITMCMSVL | inactive |
| RGLWLEQRAVNNYVGR | -0.291 ± 0.46 |
| RGMISVMPSVIGPAL | inactive |
| RHDCIYRKV | inactive |
| RHGFALRLVHSSL | inactive |

| Substance | amyloid nucleation score |
| --- | --- |
| RHGLAWTYVKKSKMRTAAGR | inactive |
| RHLLLTGKSWCVQACPGRTV | -0.965 ± 1.1 |
| RIIIVYR | inactive |
| RILLFMHPMSICMSP | inactive |
| RILPYSGSALLISTGFYHR | inactive |
| RIMWSRRVENVL | inactive |
| RIPLWCFS | inactive |
| RIPSGFTL | inactive |
| RIVEGMYLYVLS | inactive |
| RKARRGCYVFLPKFSNVEFH | 1.03 ± 0.12 |
| RKCRCYLTSFKDPALYLT | inactive |
| RKERGSVFGSIWQFSCIRR | 0.731 ± 0.25 |
| RKFAGYQSSNASGSPVQGMS | inactive |
| RKGHDVVAVYWADLHSSGIV | inactive |
| RKLNNTSTSHGICVGAWITN | inactive |
| RKMFWDGF | inactive |
| RKNAVCICSNL | inactive |
| RKSIGSLG | inactive |
| RKSSSVRFFEHCVVSDVWLV | inactive |
| RKYCYGMSLFTDMTMLVRRK | inactive |
| RLATREDHAHLLDHACLVG | inactive |
| RLATYALSFPSS | inactive |
| RLGEGKCTPYQWFVSNSTSN | -0.166 ± 0.66 |

| Substance | amyloid nucleation score |
| --- | --- |
| RLGFDITKITWCGIYFAGWV | inactive |
| RLGFF | inactive |
| RLGRLTPKMISYRKVWKYWG | inactive |
| RLGTMVVDLVERARIEGDVF | inactive |
| RLHFCVGPMAPYSMEQSQ | inactive |
| RLINKYWSPNPMLRKFR | 1.09 ± 0.11 |
| RLINVMVCYLLEGCQGLLL | 1.67 ± 0.1 |
| RLKNHSGCIILNRCVSRGRI | inactive |
| RLNAYMCLEMVTLSTRKHVG | 1.79 ± 0.079 |
| RLNRVGNFIAGHLIGA | inactive |
| RLPPDSQMPSFYCCVDL | -0.144 ± 1.1 |
| RLQPFVHFVYCWESIVVCMW | 1.56 ± 0.068 |
| RLSLFRGKCRVYYYTGSIQV | inactive |
| RLVCCKSHPFDVRYF | inactive |
| RLVYPSVSSLKPIRSCWLG | inactive |
| RLYLESVYYFLSRAHRLSID | inactive |
| RLYNTIFPSKKIWYKKLEGC | inactive |
| RLYRRSCVSSR | inactive |
| RMCGSCYLCYCRERRGYTAF | inactive |
| RMDLEIVLNILHSGMS | inactive |
| RMFNSYNQFLLVAMLPYPLR | 2.62 ± 0.071 |
| RMRSMRSMF | inactive |
| RMSRNMWFWLRLNSNYIVFS | inactive |

| Substance | amyloid nucleation score |
| --- | --- |
| RMTMFRTEAAVVKRSVSTVV | inactive |
| RMVHS | 1.62 ± 0.091 |
| RMVPKMSVCS | inactive |
| RNEDLSA | -0.096 ± 0.66 |
| RNHIALSLGWIQEDVIGSWN | 0.991 ± 0.13 |
| RNIELSAPLFWSAAASDVVK | inactive |
| RNISRS | inactive |
| RNKRLKLILYLHRVDEAVAE | inactive |
| RNNDDSVLMDMLCMKCRTWL | inactive |
| RNPDLVVKSQGVNRWGDSRC | inactive |
| RNSLFLLPSTCSVYIWCFS | 2.8 ± 0.081 |
| RNSVIWNRLYRMRWV | inactive |
| RNWKSYRYAVGRCDMGSELL | inactive |
| RNYNVV | inactive |
| RPQSLVYRFISYHRLYYLYR | inactive |
| RPSSQVYGRWEIYIKYL | inactive |
| RPVVWYISRTSVVLDCAWGS | inactive |
| RPYGSEVVIFMSVSRKPPPA | 0.661 ± 0.14 |
| RQHGMLCSRSTRMVLFKS | inactive |
| RQHMDGVVDI | inactive |
| RQLMIDAQSVYKCCGQPW | inactive |
| RQNPGLGFLNFFLMV | 0.258 ± 0.35 |
| RQVVRSTLRLSWSIFLYSYM | inactive |
